Sequences and labels used below:
T1: lambda terminase holoenzyme ring (TerL•TerS2)5 (Escherichia phage Lambda, UniProt P03708)
T1 construct: gene A; assembled ring of five TerL•TerS2 protomers; with Terminase small subunit
T1 sequence (P03708 1-641): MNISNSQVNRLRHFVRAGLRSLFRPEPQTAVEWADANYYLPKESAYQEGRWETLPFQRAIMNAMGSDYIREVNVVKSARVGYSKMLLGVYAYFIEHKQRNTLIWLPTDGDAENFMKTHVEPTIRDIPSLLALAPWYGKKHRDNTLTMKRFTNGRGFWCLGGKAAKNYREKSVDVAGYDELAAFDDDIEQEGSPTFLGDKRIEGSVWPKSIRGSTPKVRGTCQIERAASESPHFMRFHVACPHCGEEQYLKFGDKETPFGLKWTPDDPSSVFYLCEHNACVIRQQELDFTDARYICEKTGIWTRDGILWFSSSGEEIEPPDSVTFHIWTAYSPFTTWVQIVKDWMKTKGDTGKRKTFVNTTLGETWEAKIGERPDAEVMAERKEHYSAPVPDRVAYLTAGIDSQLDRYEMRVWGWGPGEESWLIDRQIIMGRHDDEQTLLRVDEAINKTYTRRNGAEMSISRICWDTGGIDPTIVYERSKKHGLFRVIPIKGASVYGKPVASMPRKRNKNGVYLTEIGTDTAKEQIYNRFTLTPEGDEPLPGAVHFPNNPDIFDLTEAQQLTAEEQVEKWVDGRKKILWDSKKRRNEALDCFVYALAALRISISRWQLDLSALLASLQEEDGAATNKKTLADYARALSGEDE
T1 sequence (P03707 1-181 partner): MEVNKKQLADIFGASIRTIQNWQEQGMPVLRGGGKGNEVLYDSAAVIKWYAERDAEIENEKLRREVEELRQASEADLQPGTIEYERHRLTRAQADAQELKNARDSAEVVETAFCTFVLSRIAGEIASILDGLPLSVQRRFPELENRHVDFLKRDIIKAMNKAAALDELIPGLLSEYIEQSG

B1: bacteriophage λ terminase large subunit (TerL) (enzyme, UniProt P03708 1-641, looked up)
chain: T1 sequence (P03708 1-641)
notes: large catalytic terminase subunit TerL of bacteriophage lambda; Never tested as an isolated subunit, only as part of the protomer or ring; also called large terminase
B2: bacteriophage λ terminase small subunit (TerS) (natural protein, UniProt P03707 1-181, looked up)
chain: T1 sequence (P03707 1-181 partner)
notes: small DNA recognition terminase subunit TerS of bacteriophage lambda; Never tested as an isolated subunit, only as part of the protomer or ring; also called small terminase

The target of data set [1] is T1, lambda terminase holoenzyme ring (TerL•TerS2)5. Briefly: ATPase assay, […] TLC, phosphorimaging. It counts as biochemical. The settings on record: labelled compound; 10 nM terminase; 50 mM Tris-HCl pH 9, 10 mM MgCl2, 60 mM NaCl, 2 mM spermidine, 37 °C.
Data set [2] deals with bacteriophage λ terminase protomer (TerL•TerS2) (bacteriophage λ) (UniProt P03708). Description: cryo-EM 2D class averages; purified terminase ring at 0.5 mg/ml, no ligand (apo); no 3D reconstruction.
The target is the same in data set [3]. Briefly: SAXS; assembled terminase ring at 0.25, 0.50 and 0.80 mg/ml, 5°C; mass from the Porod-invariant volume; protomers to ring.
Data set [4] has the same target. Description: native MS; charge detection mass spectrometry (CDMS) of the assembled ring, 300 mM ammonium acetate pH 8.34.
Data set [5] has the same target. Description: cryo-EM 2D class averages; purified terminase ring at 0.5 mg/ml with 1 mM ATPγS; no 3D reconstruction.
Data set [6] concerns the target T1, lambda terminase holoenzyme ring (TerL•TerS2)5. Description: cryoEM 2D class averages (conformational change). The format is binding. Conditions: 1 mM ATPγS; no DNA mentioned; no 3D reconstruction.
Data set [7] concerns the molecule itself. Description: cryo-EM 2D class averages; purified terminase ring at 0.5 mg/ml with 1 mM ATPγS; no 3D reconstruction.
The target of data set [8] is B1. Briefly: native MS; charge detection mass spectrometry (CDMS) of the terminase protomer, 200 mM ammonium acetate. The settings on record: both partners purified.

From publication PMC10810279, “Biophysical and structural characterization of a multifunctional viral genome packaging motor” (Nucleic Acids Research, 2023) come the findings set out here.

Values joined by “and” are separate entries in the source; they are usually repeats but may differ in a detail not shown here. Equal values may be shown once.

As usually defined, the Km is the concentration of substrate that gives half-maximal velocity. Usually stoichiometry N stands for the number of molecules, sites or subunits per partner or assembly.

Regarding `Nc1ncnc2c1ncn2[C@@H]1O[C@H](COP(=O)(O)OP(=O)(O)OP(=O)(O)O)[C@@H](O)[C@H]1O` [ATP], the Km in data set [1] was found to be 0.495 ± 0.07 µM. Consider “bacteriophage λ terminase protomer (TerL•TerS2) (from UniProt P03708 1-641; P03707 1-181) (complex)”, for which the stoichiometry N in data set [2] is 5; in data set [3], 5.1 and 4.2 and 4.4; in data set [4] it was 5 protomers; in data set [5] it was 5. For `Nc1ncnc2c1ncn2[C@@H]1O[C@H](COP(=O)(O)OP(=O)(O)OP(O)(O)=S)[C@@H](O)[C@H]1O` [ATPγS], the “cryoEM 2D class averages (conformational change)” value in data set [6] is listed as “we imaged the λ terminase ring bound to ATP-γS, a poorly hydrolyzed ATP analog”. Consider B1, for which the binding result in data set [7] is reported as “binds”. For the molecule B2, the binding result in data set [8] was “binds”.
